This is an account of results in article PMC10094033, “pilE G-Quadruplex Is Recognized and Preferentially Bound but Not Processed by the MutL Endonuclease from Neisseria gonorrhoeae Mismatch Repair Pathway”.

Series [1] addresses T1, ngMutL (Neisseria gonorrhoeae, UniProt Q5F8M6 1-658).
T1 sequence: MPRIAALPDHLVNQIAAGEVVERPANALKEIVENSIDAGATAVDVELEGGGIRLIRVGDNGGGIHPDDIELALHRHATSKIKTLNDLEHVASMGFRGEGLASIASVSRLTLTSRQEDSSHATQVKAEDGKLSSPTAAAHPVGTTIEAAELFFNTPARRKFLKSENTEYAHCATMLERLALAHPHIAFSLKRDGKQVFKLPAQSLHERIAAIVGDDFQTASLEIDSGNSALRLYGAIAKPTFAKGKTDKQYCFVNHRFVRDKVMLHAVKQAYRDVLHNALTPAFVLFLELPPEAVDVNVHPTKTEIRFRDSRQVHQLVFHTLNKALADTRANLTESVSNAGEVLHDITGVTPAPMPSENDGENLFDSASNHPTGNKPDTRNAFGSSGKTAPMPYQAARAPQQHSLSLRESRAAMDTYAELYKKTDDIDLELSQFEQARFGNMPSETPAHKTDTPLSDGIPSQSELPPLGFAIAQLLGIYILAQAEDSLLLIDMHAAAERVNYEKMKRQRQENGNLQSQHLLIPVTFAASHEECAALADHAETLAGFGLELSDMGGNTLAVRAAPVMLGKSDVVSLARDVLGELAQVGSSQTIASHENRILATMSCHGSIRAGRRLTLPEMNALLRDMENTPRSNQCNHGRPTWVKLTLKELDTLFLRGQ
The series can be described thus: EMSA; apparent Kd, per dimer; no ATP; 20 mM HEPES pH 8.0, 100 mM KCl, 0.5 mg/mL BSA, 1 mM DTT, 20 nM DNA, 15-1000 nM ngMutL dimer, 10 min on ice; 6% native PAGE in TAE at 4 C. The conditions noted are these: protein: recombinant, tags: N-terminal His6, chain copies: 2, label: 3'-TAMRA on strand 1, blunt.

For series [2], the target named is T1, ngMutL. Briefly: EMSA; increasing ATP; binding not significantly reduced by ATP; 20 mM HEPES pH 8.0, 100 mM KCl, 0.5 mg/mL BSA, 1 mM DTT, 20 nM DNA, 15-1000 nM ngMutL dimer, 10 min on ice; 6% native PAGE in TAE at 4 C. The note with it: protein: recombinant; tags: N-terminal His6; chain copies: 2; label: 3'-TAMRA on strand 1; duplex with unpaired G4 insert in strand 1, blunt ends. Background: Mobility shift assays separate free from complexed probe on a gel.

B1: 95pilG4/95M (dsDNA)
DNA 1: GTCGGAATTTGAGATTTTTGAATTTACGCGTTAGAATAGGGTGGGTTGGGTGGGGAATTTTCTATTTTTTAAAAAGCTCCGTTTTCTTGGAAAGC
DNA 2: GCTTTCCAAGAAAACGGAGCTTTTTAAAAAATAGAAAATTCCCCACCCAACCCACCCTATTCTAACGCGTAAATTCAAAAATCTCAAATTCCGAC
For the molecule B1, the Kd in the series with ngMutL [1] was 123 nM.

B2: 95G4/76M (mixed)
DNA 1: ATAGGACGCTGACACTGGTGCTTGGCAGCTGAGCCATATTTGGGTGGGTGGGTGGGTTGCTCGAGTAACGCTCATAGGATCCAAGCGCGAAAGGA
DNA 2: TCCTTTCGCGCTTGGATCCTATGAGCGTTACTCGAGCATATGGCTCAGCTGCCAAGCACCAGTGTCAGCGTCCTAT
On to B2, for which the binding result in the series with ngMutL [2] is on record as “binds”.

B3: 41pilG4/41M (dsDNA)
DNA 1: ACGCGTTAGAATAGGGTGGGTTGGGTGGGGAATTTTCTATT
DNA 2: AATAGAAAATTCCCCACCCAACCCACCCTATTCTAACGCGT
Turning to B3, the Kd in the series with ngMutL [1] (G4 may be partially preserved by CD) amounted to 650 nM.
